# Assay results reported in US20200317802A1 (Merck KGaA, published 2020).
# T1: recombinant human ADAMTS5 (R&D Systems cat #2198-AD) (human, UniProt Q9UNA0 262-622, limits assumed)
# T1 construct: bought protein
# T1 sequence: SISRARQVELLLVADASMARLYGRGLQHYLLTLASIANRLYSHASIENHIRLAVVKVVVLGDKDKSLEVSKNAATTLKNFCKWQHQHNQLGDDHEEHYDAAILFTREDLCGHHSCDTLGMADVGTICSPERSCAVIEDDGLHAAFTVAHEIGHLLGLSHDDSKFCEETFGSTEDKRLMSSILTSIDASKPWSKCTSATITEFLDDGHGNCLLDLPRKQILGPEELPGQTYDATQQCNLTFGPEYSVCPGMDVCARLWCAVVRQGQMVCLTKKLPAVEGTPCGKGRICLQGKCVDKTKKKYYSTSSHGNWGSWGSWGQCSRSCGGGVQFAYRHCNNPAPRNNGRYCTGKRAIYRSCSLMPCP
# T2: guinea pig recombinant ADAMTS5 (guinea pig)
# T2 construct: in house, HEK293, His tag in the entry
# T2 chain: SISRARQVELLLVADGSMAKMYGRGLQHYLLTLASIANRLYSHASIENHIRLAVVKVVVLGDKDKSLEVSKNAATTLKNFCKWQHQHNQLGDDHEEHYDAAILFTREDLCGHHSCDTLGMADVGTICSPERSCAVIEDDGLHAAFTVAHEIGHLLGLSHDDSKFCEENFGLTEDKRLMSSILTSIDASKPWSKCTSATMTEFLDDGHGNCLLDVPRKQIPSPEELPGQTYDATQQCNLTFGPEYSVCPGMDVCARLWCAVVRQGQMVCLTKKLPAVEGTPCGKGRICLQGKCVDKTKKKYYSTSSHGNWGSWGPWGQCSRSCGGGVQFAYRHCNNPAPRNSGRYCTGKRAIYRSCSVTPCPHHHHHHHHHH
# T3: cynomolgus monkey recombinant ADAMTS5 (cynomolgus monkey, UniProt Q9UNA0 262-622 (human entry), limits assumed)
# T3 construct: in house, HEK293, His tag in the entry; also called cyno ADAMTS5
# T3 chain: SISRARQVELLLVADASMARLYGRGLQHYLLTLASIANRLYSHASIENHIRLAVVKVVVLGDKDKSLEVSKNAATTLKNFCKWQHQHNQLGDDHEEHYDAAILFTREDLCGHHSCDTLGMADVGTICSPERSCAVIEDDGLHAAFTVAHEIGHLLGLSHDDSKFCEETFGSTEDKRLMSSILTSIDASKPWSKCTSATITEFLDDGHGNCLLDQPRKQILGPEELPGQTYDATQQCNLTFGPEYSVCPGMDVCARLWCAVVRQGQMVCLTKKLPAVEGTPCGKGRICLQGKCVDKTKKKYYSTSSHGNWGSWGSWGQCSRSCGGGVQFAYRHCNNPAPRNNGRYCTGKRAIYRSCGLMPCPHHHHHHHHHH
# T4: mouse recombinant ADAMTS5 (mouse, UniProt Q9R001 262-622, limits assumed)
# T4 construct: in house, HEK293, His tag in the entry
# T4 sequence: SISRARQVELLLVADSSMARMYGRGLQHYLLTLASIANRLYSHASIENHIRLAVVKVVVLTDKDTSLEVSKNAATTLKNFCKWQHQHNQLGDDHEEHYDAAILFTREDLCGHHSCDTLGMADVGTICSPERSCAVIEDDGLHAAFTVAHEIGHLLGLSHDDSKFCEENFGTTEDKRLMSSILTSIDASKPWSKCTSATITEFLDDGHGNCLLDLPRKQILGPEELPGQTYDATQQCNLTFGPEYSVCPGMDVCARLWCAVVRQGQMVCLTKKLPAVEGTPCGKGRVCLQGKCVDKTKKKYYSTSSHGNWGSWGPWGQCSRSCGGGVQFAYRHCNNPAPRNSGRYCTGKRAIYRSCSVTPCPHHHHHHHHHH
# Assays:
# [1] = target: T1, recombinant human ADAMTS5 (R&D Systems …); test: SPR off-rate, Biacore T100, ADAMTS5 immobilised, experiment 1
# Experimental: (§1) Species cross-reactivity was initially evaluated via SPR-based off-rate analysis on a Biacore T100 instrument. Nanobodies were tested for binding to human, cynomolgus monkey (“cyno”), guinea pig, mouse, and bovine ADAMTS5. To this end, recombinant ADAMTS5 was immobilized onto a CM5 chip via amine coupling using EDC and NHS. Purified Nanobodies were injected for 2 minutes at a concentration of 100 nM and allowed to dissociate for 15 min at a flow rate of 45 ul/min. Off-rate for each individual Nanobody was determined by fitting a 1:1 interaction model (Langmuir model) onto the individual dissociation curves using the BIA Evaluation software. As a reference, off-rates on human ADAMTS5 were determined in each experiment.
# [2] = target: T2, guinea pig recombinant ADAMTS5; test: as above
# Experimental: as §1
# [3] = target: T3, cynomolgus monkey recombinant ADAMTS5; test: as above
# Experimental: as §1
# [4] = target: T1, recombinant human ADAMTS5 (R&D Systems …); test: SPR off-rate, Biacore T100, ADAMTS5 immobilised, experiment 3
# Experimental: as §1
# [5] = target: T1, recombinant human ADAMTS5 (R&D Systems …); test: binding ELISA, periplasmic extract on coated human ADAMTS5
# Experimental: In a first step, periplasmic extracts were tested for binding to recombinant human ADAMTS5 by binding ELISA. In brief, recombinant human ADAMTS5 (R&D Systems, Minneapolis, US; cat #2198-AD) at a concentration of 1 μg/ml was coated on 384-well MaxiSorp plates (Nunc, Wiesbaden, Germany). Wells were blocked with a casein solution (1%). After addition of a 10-fold dilution of the periplasmic extracts, Nanobody binding was detected using a mouse anti-Flag-HRP conjugate (Sigma, St. Louis, US) and a subsequent enzymatic reaction in the presence of the substrate esTMB (3,3′,5,5′-tetramentylbenzidine) (SDT, Brussels, Belgium). Clones showing ELISA signals higher than the sum of the average signal of the irrelevant Nanobody controls and 3 times the standard deviation of the irrelevant Nanobody controls were considered to encode positive human ADAMTS5 binding Nanobodies.
# [6] = target: T1, recombinant human ADAMTS5 (R&D Systems …); test: cell-based or functional assay
# [7] = target: T1, recombinant human ADAMTS5 (R&D Systems …); test: cell-based or functional assay; remark: listed apart in the source
# [8] = target: T2, guinea pig recombinant ADAMTS5; test: cell-based or functional assay
# [9] = target: T3, cynomolgus monkey recombinant ADAMTS5; test: cell-based or functional assay
# [10] = target: T1, recombinant human ADAMTS5 (R&D Systems …); test: cell-based or functional assay; remark: listed apart in the source
# [11] = target: T4, mouse recombinant ADAMTS5; test: SPR off-rate, Biacore T100, ADAMTS5 immobilised, experiment 2
# Experimental: as §1
# [12] = target: T1, recombinant human ADAMTS5 (R&D Systems …); test: as above
# Experimental: as §1
# [13] = target: T1, recombinant human ADAMTS5 (R&D Systems …); test: cell-based or functional assay; remark: listed apart in the source
Binder,koff [1],koff [2],koff [3],koff [4],binding ELISA (OD 450 nm) [5],"FRET assay % inh, periplasmic extract [6]","FRET assay vi (U/min), periplasmic extract [6]","AlphaLISA potency IC50, Human [7]","AlphaLISA potency IC50, Guinea pig [8]","AlphaLISA potency IC50, Cyno [9]",Human AlphaLISA % inhibition [10],Human AlphaLISA IC50 [10],koff [11],koff [12],"AlphaLISA IC50, - HSA [13]"
"Nanobody 2D07 (VHH, tagged as tested (anti-Flag detection, IMAC); also called 02D07; 2D7) VHH: EVQLVESGGGLVQAGGSLRLSCSFSGPGRTFARYAMGWFRQAPGKNRDFITGISGSGDSTYYVYPMKDRFTISRDNAKNMVYLQMNALKPEDTAVYYCAADREINRIANDKELDFWGQGTLVTVSS",0.0011 s⁻¹,0.0011 s⁻¹,0.00098 s⁻¹,0.001 s⁻¹,1.55 OD 450 nm,104%,-1 U/min,190 pM,360 pM,150 pM,100%,190 pM,0.0018 s⁻¹,0.00094 s⁻¹,190 pM
"Nanobody 3B02 (VHH, tagged as tested (anti-Flag detection, IMAC); also called 03B02; 3B2) VHH: EVQLVESGGGFVQAGGSLRLSCVASRRTISSGTMGWFRQAPGKEREFVAAIRWSSGMPYYLDSVMDRFTISRDNAKNTVSLQMNSLQPEDTAVYYCAADRSAFRDPSFDVNYEYWGRGTLVTVSS",0.00073 s⁻¹,0.001 s⁻¹,0.00074 s⁻¹,0.0012 s⁻¹,2.57 OD 450 nm,105%,-1 U/min,300 pM,460 pM,190 pM,100%,300 pM,0.002 s⁻¹,0.00085 s⁻¹,300 pM
"Nanobody 3B03 (VHH, tagged as tested (anti-Flag detection, IMAC); also called 03B03) VHH: EVQLVESGGDLVQPGGSLRLSCAASGSDVVVNDMGWYRQAPGKQRELVADITTGGRTNYADSVKGRFTISRDNVKNTVYLQMNSLKPEDTAVYYCNAQVGDSDDDVWYAYWGQGTLVTVSS",–,–,–,–,2.29 OD 450 nm,93%,2 U/min,–,–,–,100%,12000 pM,–,–,–

# Results, then the binder that gave them:
koff [1],koff [2],koff [3],koff [4],binding ELISA (OD 450 nm) [5],"FRET assay % inh, periplasmic extract [6]","FRET assay vi (U/min), periplasmic extract [6]","AlphaLISA potency IC50, Human [7]","AlphaLISA potency IC50, Guinea pig [8]","AlphaLISA potency IC50, Cyno [9]",Human AlphaLISA % inhibition [10],Human AlphaLISA IC50 [10],koff [11],koff [12],"AlphaLISA IC50, - HSA [13]",Binder
0.00023 s⁻¹,0.00027 s⁻¹,0.0002 s⁻¹,0.00046 s⁻¹,2.57 OD 450 nm,111%,-2 U/min,390 pM,350 pM,220 pM,96%,390 pM,0.00064 s⁻¹,0.00032 s⁻¹,–,"Nanobody 3D01 (VHH, tagged as tested (anti-Flag detection, IMAC); also called 03D01) VHH: EVQLVESGGGLVQAGGSLRLSCAPSGFTFSPYYMGWFRQAPGKERDFVAAISRSRGTTYYLDSTEGRFTISRDNANDTVYLQMNSLNPEDTAVYYCAAGRSPGDPSRTYLYDYWGQGTLVTVSS"
–,–,–,–,2.58 OD 450 nm,111%,-2 U/min,–,–,–,100%,220 pM,–,–,–,"Nanobody 3D02 (VHH, tagged as tested (anti-Flag detection, IMAC); also called 03D02) VHH: EVQLVESGGGLVQAGASLRLSCATSGFTFSPYYMGWFRQAPGKERDFVAAISWSRGILYYTDSTEGRFTISRDNAKNTMYLQMDNLNPEDTAVYYCAASRSPGDPSRTYLYDYWGQGTLVTVSS"
–,–,–,–,0.368 OD 450 nm,90%,2 U/min,–,–,–,100%,3600 pM,–,–,–,"Nanobody 7B11 (VHH, tagged as tested (anti-Flag detection, IMAC); also called 07B11) VHH: EVQLVESGGGLVQPGGSLRLSCAASGSIFSINVMGWYRQAPGKQRELVAAIISGGRTNYADSVKGRFTISRDNSKNTVYLQMNSLRPEDTAVYYCNAEVDAGIYAYGYWGQGTLVTVSS"
0.00098 s⁻¹,0.001 s⁻¹,0.00092 s⁻¹,0.0014 s⁻¹,–,110%,-2 U/min,110 pM,130 pM,120 pM,100%,110 pM,0.0037 s⁻¹,0.0012 s⁻¹,110 pM,"Nanobody 9D03 (VHH, tagged as tested (anti-Flag detection, IMAC); also called 09D03; 9D3) VHH: EVQLVESGGGLVQSGGSLRLSCAASGSAVSVNAMAWYRQAPGKQRDFVAGISRSAGRTYYTDSVKDRFTIARDSAKNTVYLQMNRLKPEDTAVYYCAADLDPNRIFSRDEAAYWGQGTLVTVSS"
0.00017 s⁻¹,0.00017 s⁻¹,0.00014 s⁻¹,0.00038 s⁻¹,–,106%,-1 U/min,100 pM,350 pM,120 pM,100%,100 pM,0.00053 s⁻¹,0.00027 s⁻¹,–,"Nanobody 11B06 (VHH, tagged as tested (anti-Flag detection, IMAC)) VHH: EVQLVESGGGLVQAGGSLRLSCAASGLTFRRNAMGWFRQAPGKERELLAGINWSGGTTYYVDSVKGRFTISRDNAKNTVDLQMISPKPEDTAVYYCAADGDIGTLVNDENPRYWGQGTLVTVSS"
